Experimental data: the DeepSol protein solubility set

Assay: soluble on expression in E. coli; label from the status in PepcDB or PDB records

Soluble on expression in E. coli, soluble:
MSLSSEHIQNKLALLPDQPGCYLMKDRQGTIIYVGKAKILKNRVRSYFSGTHDSKTQRLVQEIVDFEYIVTSSNVEALLLEINLIKKHDPRFNIRLKDDKTYPFIKITNERHPRLIITRQVKKDKGKYFGPYPNVYAANEVKRILDRLYPLRKCSTLPNKVCLYYHLGQCLAPCVFDVEASKYKEMQDEIVTFLNGGYKTVKNDLMKKMQEAAENMEFEKAGEFRDQINAIETTMEKQKMTMNDFVDRDVFGYAIDKGWMCVQVFFIRQGKLIERDVSQFPFYNDADEDFLTFIGQFYQKANHIPPKEIYLPDDVDSEAVQAVVPDTKIIVPQRGNKKDLVKLAYKNAKIALNEKFMLLERNEERTVGAVERLGEAMGIPTPSRVEAFDNSNIHGTDPVSAMVTFLDGKPSKNDYRKYKIKTVEGPDDYATMREVIRRRYWRVLKEELPMPDLILIDGGKGQIDSAKDVLTNELGLDIPVAGLAKDDKHRTSQLLFGDPLEIVPLERNSQEFYLLQRMQDEVHRFAITFHRQLRSKTGFQSILDGIPGVGPGRKKKLLKHFGSMKKLKEASVEEIKEAGVPLNVAEEVHKHITAFNEGHHHHHH
MSLNIFNSVKKAEIHVHLEATITPDLCKKFAKRNNHEIPEEMFGSEYAYQWDDFYDFIKKYDIVTSVIHTPEDYFELTYEYLKDCAANNVLYVEAMISSTHAKEKGMTYNSFIEGVYEASKKAEEDFGIVSRYIMNGIRHLGPESVQGTAEEVLNNPHPCLVGFGLAGDELHFPPNLFVETFDMLKKENFPITVHAGEWDGPVNIRNAINLLHPTRLGHGVRSIEDPDLVKEIIDKDIILETCPTSNVATKIYKDYIDHPVKTLFDQGVKVTVNSDDPPFFKCTINGEYKVMEDLGEGHHHHHH
MSLSVEQANLILNHLPMEITFVNKEDIFQYYNDNTPADEMIFKRTPSQVGRNVELCHPPKYLDKVKTIMKGLREGSKDKYEMWFKSESRGKFVHITYAAVHDEDGEFQGVLEYVQDIQPYREIDTDYFRGLEEGHHHHHH
SVIRELNKNWQSHAFDGFEVNWTEQQQMVSCLYTLGYPPAQAQGLHVTSISWNSTGSVVACAYGRLDHGDWSTLKSFVCAWNLDRRDLRPQQPSAVVEVPSAVLCLAFHPTQPSHVAGGLYSGEVLVWDLSRLEDPLLWRTGLTDDTHTDPVSQVVWLPEPGHSHRFQVLSVATDGKVLLWQGIGVGQLQLTEGFALVMQQLPRSTKLKKHPRGETEVGATAVAFSSFDPRLFILGTEGGFPLKCSLAAGEAALTRMPSSVPLRAPAQFTFSPHGGPIYSVSCSPFHRNLFLSAGTDGHVHLYSMLQAPPLTSLQLSLKYLFAVRWSPVRPLVFAAASGKGDVQLFDLQKSSQKPTVLIKQTQDESPVYCLEFNSQQTQLLAAGDAQGTVKVWQLSTEFTEQGPREAEDLDCLAAEVAA
MSLLEKINSSTCTLRFKNDWLKIFTCPVPSSDFLSFVGVATIDAPQHAVLSLLYDIESATEWVWKTREMRVLQELADDNEGRVVYQVVSAPWPVSDREIISRSTAYKDPETGEVFIKIESLPDFIPETSNCVRVRKLEGAWNILPLSENSCRVVFRLHIEPAGEIPSWLANIAVIDTPYHTLNNMRDMVKREKYKNPVGAPLKESTEGIIRNYNDFITELEHHHHHH
MAKRLSKQQLAKAIANTLETPPQPKAGRRRNRRRQRSAVQQLQPTQAGISMAASAQGAMVRIRNPAVSSSRGGITVLTHSELSAEIGVTDSIVVSSELVMPYTVGTWLRGVAANWSKYSWLSVRYTYIPSCPSSTAGSIHMGFQYDMADTVPVSVNQLSNLRGYVSGQVWSGSAGLCFINGTRCSDTSTAISTTLDVSKLGKKWYPYKTSADYATAVGVDVNIATPLVPARLVIALLDGSSSTAVAAGRIYCTYTIQMIEPTASALNN
GSITQPTAINVIFPDPALANAIKIAAGKSNVTDTVTQADLDGITTLSAFGTGVTTIEGVQYLNNLIGLELKDNQITDLAPLKNLTKITELELSGNPLKNVSAIAGLQSIKTLDLTSTQITDVTPLAGLSNLQVLYLDLNQITNISPLAGLTNLQYLSIGNAQVSDLTPLANLSKLTTLKADDNKISDISPLASLPNLIEVHLKNNQISDVSPLANTSNLFIVTLTNQTITNQPVFYNNNLVVPNVVKGPSGAPIAPATISDNGTYASPNLTWNLTSFINNVSYTFNQSVTFKNTTVPFSGTVTQPLTE
